{
  "source": "paper PMC10002499",
  "about": "(2023)",
  "binders": {"B1": {"name": "dysferlin extended C2DE region (aa 1284-1576) (domain or fragment)", "chain": "AIHHIPGFEMHETSRILDETEDTDLPYPPPQREANIYMVPQNIKPALQRTAIEILAWGLRNIKSYQMASVSSPSLVVECGGQTVQSCVIRNLRKNPNFDVCTLFMEVMLPREDLYCPPIVVKVIDNRQFGRRPVVGQCTIRSLENFLCDPYSAESPSPQGGPDDVSLLSPGEDVLIDIDDKEPLIPVQEEEFIDWWSKFFASIGEREKCGSYLEKDFDTLKVYDTQLENVEAFGGLSDFCNTFKLYRGKTQEDTEDPSVIGEFKGLFKIYPLPEDPAIPMPPRQFHQLAAQGP"}},
  "biological_target": "PDCD6 (ALG-2) construct (rat, UniProt G3V7W1 1-191)",
  "sequence (G3V7W1 whole entry)": "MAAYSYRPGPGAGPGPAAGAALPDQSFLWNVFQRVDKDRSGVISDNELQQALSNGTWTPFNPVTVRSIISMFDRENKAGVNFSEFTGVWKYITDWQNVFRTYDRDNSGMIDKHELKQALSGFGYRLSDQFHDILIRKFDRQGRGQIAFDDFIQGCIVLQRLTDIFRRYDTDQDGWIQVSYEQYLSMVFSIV",
  "assay": "SPR; 0 added Ca2+",
  "data": [
    {"binder": "B1", "values": [
      {"measurement": "Kd", "result": 160, "unit": "nM"}
    ]}
  ]
}
